Source: the supplement of paper PMC10567573

B1: CPXM2 (parent)
chain: EILGCPLPDPNNYYHRRNEMTTTD

Variants of: B1
Experiment: protein stability index of a GFP-peptide fusion (GPS, HEK-293T) (PSI 1-6); higher = more stable
Settings: c terminus: a fixed tail appended
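Also: lentivirally expressed fusions sorted by FACS into six bins by GFP to DsRed ratio, PSI derived from sequencing read proportions per bin multiplied by bin number.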

Variant	protein stability index
EILGCPLPDPNQYYHRRNEMTTTD [N12Q]	3.73
EILGCPLPDPNVYYHRRNEMTTTD [N12V]	3.17
EILGCPLPDPNHYYHRRNEMTTTD [N12H]	3.36
EILGCPLPDPNEYYHRRNEMTTTD [N12E]	3.85
EILGCPLPDPNKYYHRRNEMTTTD [N12K]	2.77
EILGCPLPDPNIYYHRRNEMTTTD [N12I]	3.05
EILGCPLPDPNFYYHRRNEMTTTD [N12F]	2.5
EILGCPLPDPNMYYHRRNEMTTTD [N12M]	3.41
EILGCPLPDPNNEYHRRNEMTTTD [Y13E]	4.29
EILGCPLPDPNNDYHRRNEMTTTD [Y13D]	4.43
EILGCPLPDPNNTYHRRNEMTTTD [Y13T]	4.35
EILGCPLPDPNNIYHRRNEMTTTD [Y13I]	3.92
EILGCPLPDPNNGYHRRNEMTTTD [Y13G]	4.08
EILGCPLPDPNNAYHRRNEMTTTD [Y13A]	4.21
EILGCPLPDPNNYYHRRCEMTTTD [N18C]	3.59
EILGCPLPDPNNYYHRRYEMTTTD [N18Y]	2.67
EILGCPLPDPNNYYHRRTEMTTTD [N18T]	3.6
EILGCPLPDPNNYYHRRWEMTTTD [N18W]	2.16
EILGCPLPDPNNYYHRRREMTTTD [N18R]	3.19
EILGCPLPDPNNYYHRRAEMTTTD [N18A]	3.3
EILGCPLPDPNNYYHRREEMTTTD [N18E]	4.01
EILGCPLPDPNNYYHRRMEMTTTD [N18M]	2.91
EILGCPLPDPNNYYHRRHEMTTTD [N18H]	3.37
EILGCPLPDPNNYYHRRFEMTTTD [N18F]	2.41

Variant	protein stability index
EILGCPLPDPNNYYHRRNEMFTTD [T21F]	2.77
EILGCPLPDPNNYYHRRNEMYTTD [T21Y]	2.81
EILGCPLPDPNNYYHRRNEMNTTD [T21N]	3.45
EILGCPLPDPNNYYHRRNEMETTD [T21E]	4.27
EILGCPLPDPNNYYHRRNEMQTTD [T21Q]	3.6
EILGCPLPDPNNYYHRRNEMHTTD [T21H]	2.91
EILGCPLPDPNNYYHRRNEMITTD [T21I]	2.77
EILGCPLPDPNNYYHRRNEMATTD [T21A]	3.6
EILGCPLPDPNNYYHRRNEMLTTD [T21L]	2.97
EILGCPLPDPNNYYHRRNEMPTTD [T21P]	3.08
EILGCPLPDPNNYYHRRNEMDTTD [T21D]	4.25
EILGCPLPDSNNYYHRRNEMTTTD [P10S]	3.42
EILGCPLPDKNNYYHRRNEMTTTD [P10K]	3.41
EILGCPLPDRNNYYHRRNEMTTTD [P10R]	3.49
EILGCPLPDENNYYHRRNEMTTTD [P10E]	4.08
EILGCPLPDINNYYHRRNEMTTTD [P10I]	3.09
EILGCPLPDLNNYYHRRNEMTTTD [P10L]	2.8
EILGCPLPDGNNYYHRRNEMTTTD [P10G]	3.95
EILGCPLPDFNNYYHRRNEMTTTD [P10F]	3.18
EILGCPLPDPNNYYHRRNEMTETD [T22E]	4.39
EILGCPLPDPNNYYHRRNEMTGTD [T22G]	3.56
EILGCPLPDPNNYYHRRNEMTQTD [T22Q]	4.18
EILGCPLPDPNNYYHRRNEMTATD [T22A]	3.15
EILGCPLPDPNNYYHRRNEMTWTD [T22W]	1.85

Variant	protein stability index
EILGCPLPDPNNYYHRRNEMTVTD [T22V]	3.38
EILGCPLPDPNNYYHRRNEMTHTD [T22H]	3.51
EILGCPLPDPNNYYHRRNEMTLTD [T22L]	2.69
EIFGCPLPDPNNYYHRRNEMTTTD [L3F]	3.38
EIRGCPLPDPNNYYHRRNEMTTTD [L3R]	4.3
EIHGCPLPDPNNYYHRRNEMTTTD [L3H]	4.16
EICGCPLPDPNNYYHRRNEMTTTD [L3C]	4.07
EINGCPLPDPNNYYHRRNEMTTTD [L3N]	3.78
EIYGCPLPDPNNYYHRRNEMTTTD [L3Y]	3.7
EIWGCPLPDPNNYYHRRNEMTTTD [L3W]	3.84
EIKGCPLPDPNNYYHRRNEMTTTD [L3K]	4.48
EIVGCPLPDPNNYYHRRNEMTTTD [L3V]	3.85
EILGCPLHDPNNYYHRRNEMTTTD [P8H]	2.82
EILGCPLNDPNNYYHRRNEMTTTD [P8N]	3.31
EILGCPLMDPNNYYHRRNEMTTTD [P8M]	2.47
EILGCPLIDPNNYYHRRNEMTTTD [P8I]	3.14
EILGCPLDDPNNYYHRRNEMTTTD [P8D]	4.22
EILGCPLGDPNNYYHRRNEMTTTD [P8G]	3.8
EILGIPLPDPNNYYHRRNEMTTTD [C5I]	3.28
EILGEPLPDPNNYYHRRNEMTTTD [C5E]	4.07
EILGPPLPDPNNYYHRRNEMTTTD [C5P]	4.42
EILGSPLPDPNNYYHRRNEMTTTD [C5S]	4.17
EILGDPLPDPNNYYHRRNEMTTTD [C5D]	4.09
EILGHPLPDPNNYYHRRNEMTTTD [C5H]	3.91

Variant	protein stability index
EILGMPLPDPNNYYHRRNEMTTTD [C5M]	3.83
EILGVPLPDPNNYYHRRNEMTTTD [C5V]	3.41
EILGRPLPDPNNYYHRRNEMTTTD [C5R]	3.54
EILGGPLPDPNNYYHRRNEMTTTD [C5G]	3.76
EILGCPLPDPNNYYHRRNWMTTTD [E19W]	2.09
EILGCPLPDPNNYYHRRNAMTTTD [E19A]	2.89
EILGCPLPDPNNYYHRRNMMTTTD [E19M]	2.48
EILGCPLPDPNNYYHRRNSMTTTD [E19S]	3.46
EILGCPLPDPNNYYHRRNQMTTTD [E19Q]	3.31
EILGCPLPDPNNYYHRRNTMTTTD [E19T]	2.95
EILGCPLPDPNNYYHRRNRMTTTD [E19R]	3.16
EILGCPLPDPNNYYHRRNVMTTTD [E19V]	2.71
EILGCCLPDPNNYYHRRNEMTTTD [P6C]	2.92
EILGCLLPDPNNYYHRRNEMTTTD [P6L]	2.14
EILGCILPDPNNYYHRRNEMTTTD [P6I]	2.01
EILGCMLPDPNNYYHRRNEMTTTD [P6M]	2.07
EILGCVLPDPNNYYHRRNEMTTTD [P6V]	2.48
EILGCHLPDPNNYYHRRNEMTTTD [P6H]	2.94
EILGCNLPDPNNYYHRRNEMTTTD [P6N]	2.8
EILGCDLPDPNNYYHRRNEMTTTD [P6D]	3.95
EILGCPLPSPNNYYHRRNEMTTTD [D9S]	3.24
EILGCPLPCPNNYYHRRNEMTTTD [D9C]	3.17
